Source: publication doi:10.1101/2025.08.03.668247, “The structure of Egalitarian in complex with the K10 mRNA localization signal reveals a modular binding surface required for function”
Changes are numbered by the printed parent chain.

Tests used:
Experiment in all cases: fluorescence anisotropy; FA: 20 mM HEPES-NaOH pH 7.5, 100 mM NaCl, 10% glycerol, 20 C, 10 nM FAM-RNA; competition: 150 nM Egl512-819 + 10 nM FAM-K10 TLS, same buffer
K754E = target: T1, K754E (Drosophila melanogaster, UniProt Q9W1K4 512-819, K754E); details: protein: recombinant; tags: N-terminal GST; label: 5'-6-FAM; hairpin with two bulges
T1 sequence: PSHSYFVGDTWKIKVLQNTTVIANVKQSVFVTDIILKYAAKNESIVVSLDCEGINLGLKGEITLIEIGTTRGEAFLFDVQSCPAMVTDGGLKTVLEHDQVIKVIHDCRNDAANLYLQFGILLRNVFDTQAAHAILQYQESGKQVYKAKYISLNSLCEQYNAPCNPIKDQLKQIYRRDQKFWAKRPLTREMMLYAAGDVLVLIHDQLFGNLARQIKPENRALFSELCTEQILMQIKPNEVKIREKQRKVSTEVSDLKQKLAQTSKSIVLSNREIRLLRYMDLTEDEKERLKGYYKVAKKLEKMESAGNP

GST-Egl512-819 = target: T2, GST-Egl512-819 (Drosophila melanogaster, UniProt Q9W1K4 512-819); details: protein: recombinant; tags: N-terminal GST (TEV site); label: 5'-6-FAM; hairpin with two bulges
T2 sequence: T1 sequence with E243K

R782E = target: T3, R782E (Drosophila melanogaster, UniProt Q9W1K4 512-819, R782E); details: protein: recombinant; tags: N-terminal GST; label: 5'-6-FAM; hairpin with two bulges
T3 sequence: T1 sequence with E243K, R271E

R782A = target: T4, R782A (Drosophila melanogaster, UniProt Q9W1K4 512-819, R782A); details: protein: recombinant; tags: N-terminal GST; label: 5'-6-FAM; hairpin with two bulges
T4 sequence: T1 sequence with E243K, R271A

K758E = target: T5, K758E (Drosophila melanogaster, UniProt Q9W1K4 512-819, K758E); details: protein: recombinant; tags: N-terminal GST; label: 5'-6-FAM; hairpin with two bulges
T5 sequence: T1 sequence with E243K, K247E

Binder: CUUGAUUGUAUUUUUAAAUUAAUUCUUAAAAACUACAAAUUAAG (structured_RNA) [K10 TLS (FAM)]
- Kd (K754E): 263 ± 16 nM
- Kd (GST-Egl512-819): 130 ± 6 nM
- Kd (R782E): 235 ± 30 nM
- Kd (R782A): 284 ± 13 nM
- Kd (K758E): 380 ± 65 nM
